# Laboratory results as given in PMC4390494 (Journal of immunology (Baltimore, Md. : 1950), 2015).
# Target: the molecule itself
# Test: pull-down
protein,measurement,value
"HkRP3 (1) (aa 1-724), GST- or MBP-fused (domain or fragment, UniProt A6NC98-1 1-724, looked up) MEGGKGPRLRDFLSGSLATWALGLAGLVGEAEDSEGEEEEEEEEPPLWLEKRFLRLSDGALLLRVLGIIAPSSRGGPRMLRGLDGPAAWRVWNLNHLWGRLRDFYQEELQLLILSPPPDLQTLGFDPLSEEAVEQLEGVLRLLLGASVQCEHRELFIRHIQGLSLEVQSELAAAIQEVTQPGAGVVLALSGPDPGELAPAELEMLSRSLMGTLSKLARERDLGAQRLAELLLEREPLCLRPEAPSRAPAEGPSHHLALQLANAKAQLRRLRQELEEKAELLLDSQAEVQGLEAEIRRLRQEAQALSGQAKRAELYREEAEALRERAGRLPRLQEELRRCRERLQAAEAYKSQLEEERVLSGVLEASKALLEEQLEAARERCARLHETQRENLLLRTRLGEAHAELDSLRHQVDQLAEENVELELELQRSLEPPPGSPGEAPLAGAAPSLQDEVREAEAGRLRTLERENRELRGLLQVLQGQPGGQHPLLEAPREDPVLPVLEEAPQTPVAFDHSPQGLVQKARDGGPQALDLAPPALDSVLEASAECPQAPDSDPQEAESPLQAAAMDPQASDWSPQESGSPVETQESPEKAGRRSSLQSPASVAPPQGPGTKIQAPQLLGGETEGREAPQGELVPEAWGLRQEGPEHKPGPSEPSSVQLEEQEGPNQGLDLATGQAEAREHDQRLEGTVRDPAWQKPQQKSEGALEVQVWEGPIPGESLASGV",binding result,binds
